Results as given in article PMC9891525 (2023).

Target: biotinylated recombinant SARS-CoV-2 wild type spike RBD (SARS-CoV-2, UniProt P0DTC2 319-541)
Assay: FACS

B1: REGN10987 scFv displayed on the surface of HEK 293T cells (scFv, V domains shown)
VH: QVQLVESGGGVVQPGRSLRLSCAASGFTFSNYAMYWVRQAPGKGLEWVAVISYDGSNKYYADSVKGRFTISRDNSKNTLYLQMNSLRTEDTAVYYCASGSDYGDYLLVYWGQGTLVTVSS
VL: QSALTQPASVSGSPGQSITISCTGTSSDVGGYNYVSWYQQHPGKAPKLMIYDVSKRPSGVSNRFSGSKSGNTASLTISGLQSEDEADYYCNSLTSISTWVFGGGTKLTVL
Kd: 8.33 nM
